Data as given in the nanobody polyreactivity screen of Harvey et al. (2022).

Assay: yeast display, Sf9 membrane polyspecificity reagent, FACS + sequencing; frameworks hold sequencing errors
Method in brief: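 After 36–48 hours of galactose induction, yeast (Saccharomyces cerevisiae BJ5465) displaying a synthetic nanobody library were stained at 4 °C for 1 hour with 10% biotinylated, detergent-solubilized Sf9 membrane reagent. Streptavidin microbeads enriched the stained cells before FACS sorting into low and high (top ~1%) gates on anti-HA and streptavidin fluorescence. Each clone's polyreactivity label reflects its gate of origin.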

| Sequence | polyreactivity (PSR sort gate) |
| --- | --- |
| QVQLVESGGGLVQAGGSLRLSCAASGRTFNRNAMGWYRPAPGKERELVAAISRGGGGTFYADSVKGRFTISRDNAKNTVYLQMNSLKPEDTAVYYCAVWQDHYDWGQGTQVTVSS | low polyreactivity |
| QVQLVESGGGLVQAGGSLRLTCAASGFIIKFYDMGWYRQAPGKERELVATITFSSGTTYYADSVKGRFTISRDNAKNTVYLQMNSLKPEDTAVYYCAAYTLPAWPYDGPAGPRYDYWGQGTQVTVSS | low polyreactivity |
| QVQLVESGGGLVQAGGSLRLSCAASGFIFANYAMGWYRQAPGKERELVAAISSGRITYYADSVKGRFTISRDNAKNTVYLQMNSLKPEDTAVYYCAADVLYQDRSGEYHHWDGDYWGQGTQVTVSS | low polyreactivity |
| QVQLVESGGGLVQAGGSLRLSCAASGIIFDYYAMGWYRPAPGKERELVAAINSGSGSTYYADSVKGRFTISRDNAKNTVYLQMNSLKPEDTAVYYCAADGLSATLTWYSYDYWGQGTQVTVSS | low polyreactivity |
| QVQLVESGGGLVQEGGSLRLICSASGIILGPYAMGWYRQAPGKESELVSAISWRGGSTYYADSVKGRFTISRDNAKNTVYLQMNSLKPEDTAVYYCATASRTSRTGWAVYYWGQGTQVTVSS | high polyreactivity |
| QVQLVESGGGLVQAGGSLRLSCAASGRISQGYAMGWYRQAPGKERELVAVISRSGGSTYYADSVKGRFTISRDNAKNTVYLQMNSVKPEDTAVYYCASRYYWRGYYWGQGTQVTVSS | high polyreactivity |
| QVQLVDTGGGIVQAGGSLRLSCAASGRTFFWNAMGWYRLAPGKERELVAAITWYGGSTYYADSVKGRFTISRDNAKNTVYLQMNSLKPEDSAVYYCAAVVSDYVWRYEYWGQGTQVTVSS | low polyreactivity |
| QVQLVESGGGLVLAGGSLRLSCAASGRIFWNYAMGWYRQAPGKERELVASINWSGGSTYYADSVKGRFTISRDNAKNTVYLQMNSLKPEDTAVYYCNKDGRVYLDHDYWGQGTQVTVSS | low polyreactivity |
| QVQLVESGRGLVQAGGSLRLSCAASGRTFWYYAMGWYRQAPGKERELDARISSSGGSTYADSVKGRFTISRDNAKNTVYLHMNSLKPEDTAVYYCAADRHYWKADPSQGYQHYYWGQGTQVTVSS | high polyreactivity |
| QVQLVESGGGLVQAGGSLRLSCAASGFIFRSNAMGWYRQAPWKEREFVAAITYSSGSTYYRNSVKGRFTISRDNAKNTVYLQMNSLKPEDTAVYYCATPVTNGFDYWGQGTQVTVSS | high polyreactivity |
| QVQLVESGGGLVQAGGSLRLSCAASGRISQIYARGWYRQAPGKERELVASISSSGSRTYYADSVKGRFTISRDHAKNTVYLQMNSLKPEDTAVYYCAATYLKVHGEYDYWGQGTQVTVSS | high polyreactivity |
| QVQLVESGGGLVQAGGSLRLSCAASGRTFRGNVMGWYRQAPGKEREFVAAITKSDGSTYYADSVKGRFTISRDIAKNTVYLQMNSLNPEDTAVDYCAARTARTGWPWFRFDYWGQGTQVTVSS | low polyreactivity |
| QVQLVESGGGLVQAGGSLRISCAASGFTFGPYAMGWYRQAPGKERELVAAISQSGGRTSYADSVKGRFTISRDNAKNTVYLQMNSLKPEDTAVYYCAKRAYGYRSIYRMDYWGQGTQVTVSS | high polyreactivity |
| QVQLVESGGGLVQAGGSLRLSCAASGRIFPSYAMGWYRQAPGKERELVAAISSSSAGTYYADSVKGRFTISRDNAKNTVYLQMNSLKPEDTAVYYCAAASARYRQYKSYYYWGQGTQVTVSS | high polyreactivity |
| QVQLVESGGGLVQAGGSLRLSCAASGYIFPYYPMGWYRQAPGKQRELVAAISRSGGGTYYADSVKGRFTISRDIANNTVYLQMNSLKPEDTALYYCNRRSGHVHEYDYWGQGTQVTVSS | low polyreactivity |
| QVQLVESGGGLVQAGGSLRLSCAASGRTFFYYAMGWYRQAPGKERELVAGITSTGSSTYYADSVKGRFTISRDNAKNTLYLQMNSLKPEDTAVYYCAADRYTTYSGQWSYPYDYWGQGTQVTVSS | low polyreactivity |
| QVQLQESGGGLVQAGGSLRLSCAASGSIFHLHIKCWYRQAPGKERESVAAISYGTSTYYADRVKGRFTICRDNAKNTVYLQMNSPKPDDTAVYYCAALFLVSKHHHYWGEGTQVTVSS | low polyreactivity |
| QVQLVESGGGLVQAGGSLRLICAASGRTFRGYAMGWYRQAPGNERELVAAITKSGGSTYYADSVKGRFTISRDNEKNTVYFQMNSLKPEDTAVYYCAKLRSSRDYDYWGQGTQVTVSS | high polyreactivity |
| QVQLVDSGGGLDQAGGSLRLSCASSGSSSNTMLWDGKDRRLGKKGSWSSTNYADSVKGRFTISRDNAKNTVYLQMNSLKPEDTAVYYCNAYHDYITEFNYWGQGTQVTVSS | low polyreactivity |
| QVQLVESGGGLVQAGGSLRLSCAASGRTFLENAMGWYRQAPGKERELVAAISWRGGNTHYADSVKGRFTISRDNAKNTVYLQMNSLKPEDTAVYYCNAVNYRNKYDYWGQGTQVTVSS | high polyreactivity |
| QVQLVDSGGGLVHAGGRLGLSREDYGSTFPYYSMGWYRQAPGKERELVAAISGGGGSTYYADSVKGRFTISRDNAKNTVYLQMNSLKPEDSAVYYCNAYKYISPGDYWGQGTQVTVSS | high polyreactivity |

| Sequence | polyreactivity (PSR sort gate) |
| --- | --- |
| QVQLVESGGGLVQAGGSLRLSCAASGRTFTRYAMGWSRQAPGKERELVAAITSTGSTYYADSVKGRFTISRDNAKNTVYLQMNSLKPEDTAVYYCNKVGIRYYYGYDYWGQGTQVTVSS | high polyreactivity |
| QVQLVESGGGLVQAGGSLRLSCAASGITFYYNDMGWYRQAPGKERELVAAISSGGTTNYADSVKGRFTISRDNAKNTVYLQMNSLKPEDTAVYYCATGYAEPEWYPFVSDYDYWGQGTQVTVSS | low polyreactivity |
| QVQRVESGGGLVQAGGSLRLSCAASGNNVMGWYRQAPGKERELVAAISWSGTSTYADSVKGRFTISRDNAKNTVYIQMNSLKPEDTAVYYCAAEQQGRKYRASRRYDYWGQGTQVTVSS | low polyreactivity |
| QVQLVESGGGLVQAGGSLRLSCAASGPIFYRYAMGWYRQAPGKERELVAAISRGGRTYYADSVKGRFTISRDNAKNTVYLQMNRLKPEDTAVYYCATTYSLGSWGYDYWGQGTQVTVSS | high polyreactivity |
| QVQLVESGGGIVQAGGSLRLSSAASGRIFDGYTKGWYRHEPGKERQLVAAITYRSGRTYYADSVKGRFTISRDNAKNTVYLQMHSLKPDDTAVYYCAAPWYRGGNTESYYWGQGTQVTVSS | high polyreactivity |
| QVQLVESGGGLVQEGGSLRLSCAASGLTFPYYAMGWYRQAPGKERELVAGISDSGGSTYYADSVKGRFTISRDNAKNTVYVQMNSLKPEDTAVYYCAAQGVDSYYENVYWGQGSQVTVSS | high polyreactivity |
| QVQLVESGGGLVQAGGSLRLSCAASGFTFSYYGMVWYRQAPWKERELVAGISRGGSTYYADSVKGRFTISRDNAKNTVYLQMNSLKPEDTAVYYCAAAERLRHGLKFDYWGQGTQVTVSS | high polyreactivity |
| QVQLVESGAGLVQAGGSLRLSCAASGSIFGRDTMGWYRQAPGKERELVAAINLRGGSTYYADSVKGRFTISRDNAKNTVYLQMNSLKPEDTAVYYCATDGWKQSAYDYWGQGTQVTVSS | low polyreactivity |
| QVQLVESGGGLVQAGGSLRLSCAASGFTFYYYAMGWYRQAPGKERELVAAISRSGGSTYYADSVKGRFTISRDNAKNTVYLQMNSLKQEDTAVYYCAARRLVGAERPGYDDWGQGTQVTVSS | high polyreactivity |
| QVQLVESGRGLFHAGGSLRLSCAASGNTFGKYDMGWSIQAPGKERELVAAISKSSGSTYYADSVKGRFTISRDNAKNTVYFQMNSLKPEDTAVYYCAAEAYRYAWYDYWGQGTQVTVSS | high polyreactivity |
| QVQLVESGGGLVQAGGSLRLSCAASGYTFLGNAMGWYRQAPGKERELVAAISSGGTTYYADSVKGRFTISRDNEKNTVYFQMNSLKPEDTAVYFCATVFRDYDFNHWGQGTQVTVSS | low polyreactivity |
| QVQLVESGGGLVQAGGSLRLSCAASGRTFRRNVMGWYRQAPGKERELVAAISTRGGDTYYADSVKGRFTISRDNAKNTVYLQMNSLKPEDTAVYYCAAEYTYGYDYWGQGTQVTVSS | high polyreactivity |
| QVQLVESGGGLVQAGGSLRLSCAASGFTFYDYAMGWYRQAPGKERELVAAISDSGGITYYADSVTGRFTISRDNAKNTVYLQMNSLKPEDTAVYYCAADFATPGPEYDYWGQGTQVTVSW | low polyreactivity |
| QVQLVESGGGLDQAGGSLRLSCAASGSTFYPYAMGWYRQAPGKERDFVAAISYSAGSTYYADSVKGRFTISRDNAKNTVYLQMHSLKPEDTAVYYCADYGWYTYQTSYDYWGQGTQVTVSS | low polyreactivity |
| QVQLVESGGGLVQAGGSLSLSCAASGLTFYKNAMGWYRQAPGKERELVAVISSSGGSTYYADSVKGRFTISRDHAKNTVYLQMNSLKPEDTAVYYCARDLYTEYRWGRLTYDYWGQGTQVTVSS | low polyreactivity |
| QVQLVESGGGLVQAGGSLRLSCAAYRFIFATNTMGCYRQAPGKETELVAASSTYYADSVNGRFTISRDNAKNTVYLQMNSLKPEDNAVYYCNADRDSYIGFVDWAGEYWGQGTQVTVSS | low polyreactivity |
| HVHLQESGGGLVQAGGSLRLSCAASGSINDETYMAWYRQAPGKERELVATIDSGSTTNYADSVKGRITISRDNAKNTVYLQMNSLKPEDTAVYYCAAADSHIDYFDYWGQGSQVTVSS | low polyreactivity |
| QVQLVESGGGLVQAGGSLRLSCAASGFIFGKYAMGWYRQAPGKEREFVAAITGNGGSTYYADSVKGRFTISRDNAKNTVYLQMNSLKPEDTAVYYCNADRGYRRRSGMDYWGQGTQVTVSS | low polyreactivity |
| QVQLVESGGGLVQAGGSLRLSCAASGRTFYSYTMGWYRPAPGKERELVAAINRGGSTYYADSVKGRFTISRDNAKNTVYLQMNSLKPEDTAVYYCAVGYAHSSNRRYYYKKTHGYWGQGTQVTVSS | low polyreactivity |
| QVQLVESGGGLVQAGGSLRLSCAASGRSFYGYAMGWYRQAPGKERELVARISGGGRTYYADSVKGRFTISRDNAKNTVYLQMNSLNPEDTAVYYCAAVYRSTWYGFTGSVGTFDYWGQGTQVTVSS | high polyreactivity |
